# Assay results published in patent EP4814014A1, “BINDING MOLECULE AND ANTIBODY-DRUG CONJUGATE AND USE THEREOF” (priority 2023, dated 2025).
# Assays:
# human cMet on cells [1] = molecular target: T1, human cMet on cells (human, UniProt P08581 25-1390); assay: FACS, VHH-His on MKN45 cells
# T1 construct: whole, on cells; Cell lines: CHO-S-cMet, CHOK1-hucMet, EBC-1, MKN45, NCI-H1975; the cell line is named under assay; also called CHO-S-cMet; CHOK1-hucMet
# human EGFR on cells [2] = molecular target: T2, human EGFR on cells (human, UniProt P00533 25-1210); assay: FACS, VHH-His on MDA-MB-468 cells
# T2 construct: whole, on cells; the cell line is named under assay; also called CHO-S-EGFR; CHOK1-huEGFR
# [3] = molecular target: Human EGFR antigen (SPR of Example 4.4) (human, UniProt P00533 25-645); assay: SPR method I, antigen on CM5 chip, VHH-His injected, 1:1 model
# [4] = molecular target: Cyno EGFR antigen (SPR of Example 4.4) (cynomolgus monkey, UniProt A0A2K5WK39 25-645); assay: as above
# human cMet on cells [5] = molecular target: T1, human cMet on cells; assay: FACS, VHH-His on EBC-1 cells
# [6] = molecular target: T3, cynomolgus monkey EGFR-his (ECD, Met1-Ser645) (cynomolgus monkey, UniProt A0A2K5WK39 1-645); assay: SPR, antigen amine-coupled on GLM chip, antibody injected, 1:1 model
# T3 construct: range 1-645; Bought; range as printed includes Met1
# [7] = molecular target: T4, human EGFR-his (ECD, Met1-Ser645) (human, UniProt P00533 25-645); assay: as above
# T4 construct: range 1-645; Bought; range as printed includes Met1
# [8] = molecular target: T5, human cMet-his (ECD, Met1-Thr932) (human, UniProt P08581 25-932); assay: as above
# T5 construct: Bought; range as printed includes Met1
# [9] = molecular target: T6, cynomolgus monkey cMet-his (ECD, Met1-Thr932) (cynomolgus monkey, UniProt A0A2K5UM36 25-932); assay: as above
# T6 construct: Bought; range as printed includes Met1
# human EGFR on cells [10] = molecular target: T2, human EGFR on cells; assay: FACS, VHH-His on CHOK1-huEGFR cells
# T6 sequence (A0A2K5UM36 entry or part of it limits assumed, form in doubt): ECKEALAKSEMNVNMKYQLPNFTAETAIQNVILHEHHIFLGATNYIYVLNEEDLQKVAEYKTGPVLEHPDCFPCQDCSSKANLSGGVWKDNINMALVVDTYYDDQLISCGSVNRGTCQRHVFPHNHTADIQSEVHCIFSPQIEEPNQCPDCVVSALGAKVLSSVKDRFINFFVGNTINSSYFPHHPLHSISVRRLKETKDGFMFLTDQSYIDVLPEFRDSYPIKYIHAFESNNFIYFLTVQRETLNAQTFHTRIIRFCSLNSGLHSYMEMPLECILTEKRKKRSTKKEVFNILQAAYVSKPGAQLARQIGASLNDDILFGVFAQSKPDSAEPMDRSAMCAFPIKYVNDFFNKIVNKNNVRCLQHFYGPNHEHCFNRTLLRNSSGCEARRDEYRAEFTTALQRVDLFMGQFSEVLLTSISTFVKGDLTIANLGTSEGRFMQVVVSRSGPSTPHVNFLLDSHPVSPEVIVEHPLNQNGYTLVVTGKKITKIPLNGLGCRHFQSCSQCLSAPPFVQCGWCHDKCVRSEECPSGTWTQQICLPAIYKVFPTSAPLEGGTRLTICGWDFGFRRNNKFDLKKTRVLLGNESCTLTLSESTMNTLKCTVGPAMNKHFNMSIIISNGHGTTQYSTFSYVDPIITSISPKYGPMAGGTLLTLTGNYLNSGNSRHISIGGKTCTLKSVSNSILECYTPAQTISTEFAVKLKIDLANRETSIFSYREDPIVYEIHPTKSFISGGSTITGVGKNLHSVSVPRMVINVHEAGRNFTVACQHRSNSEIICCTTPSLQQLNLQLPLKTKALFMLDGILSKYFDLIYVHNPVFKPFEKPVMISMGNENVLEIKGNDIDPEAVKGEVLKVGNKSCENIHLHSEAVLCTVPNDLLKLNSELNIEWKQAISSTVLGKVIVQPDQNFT
# T5 sequence (P08581 25-932): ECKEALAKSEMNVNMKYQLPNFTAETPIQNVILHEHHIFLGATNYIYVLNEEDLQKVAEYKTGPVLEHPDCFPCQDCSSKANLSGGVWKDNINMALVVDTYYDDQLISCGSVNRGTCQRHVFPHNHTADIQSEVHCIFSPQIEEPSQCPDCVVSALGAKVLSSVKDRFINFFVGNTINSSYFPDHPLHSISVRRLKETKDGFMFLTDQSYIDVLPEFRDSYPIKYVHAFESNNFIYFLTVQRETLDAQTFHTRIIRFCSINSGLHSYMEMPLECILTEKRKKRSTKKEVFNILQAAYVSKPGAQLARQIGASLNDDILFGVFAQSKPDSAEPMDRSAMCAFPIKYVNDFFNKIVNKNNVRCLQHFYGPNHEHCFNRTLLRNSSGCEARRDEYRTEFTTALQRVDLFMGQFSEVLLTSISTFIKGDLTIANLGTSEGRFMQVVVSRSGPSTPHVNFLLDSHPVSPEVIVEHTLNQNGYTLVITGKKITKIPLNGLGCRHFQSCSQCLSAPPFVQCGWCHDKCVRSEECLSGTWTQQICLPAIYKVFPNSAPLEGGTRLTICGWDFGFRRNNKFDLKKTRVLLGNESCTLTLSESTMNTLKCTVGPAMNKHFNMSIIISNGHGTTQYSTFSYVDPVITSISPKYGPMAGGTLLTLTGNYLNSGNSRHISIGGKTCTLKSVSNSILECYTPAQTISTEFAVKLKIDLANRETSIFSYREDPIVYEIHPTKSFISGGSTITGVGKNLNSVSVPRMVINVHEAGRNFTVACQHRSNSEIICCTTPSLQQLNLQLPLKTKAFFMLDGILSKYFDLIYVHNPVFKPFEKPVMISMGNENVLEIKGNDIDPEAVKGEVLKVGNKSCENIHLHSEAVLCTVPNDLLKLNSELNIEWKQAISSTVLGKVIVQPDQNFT
# T1 sequence (P08581 25-1390): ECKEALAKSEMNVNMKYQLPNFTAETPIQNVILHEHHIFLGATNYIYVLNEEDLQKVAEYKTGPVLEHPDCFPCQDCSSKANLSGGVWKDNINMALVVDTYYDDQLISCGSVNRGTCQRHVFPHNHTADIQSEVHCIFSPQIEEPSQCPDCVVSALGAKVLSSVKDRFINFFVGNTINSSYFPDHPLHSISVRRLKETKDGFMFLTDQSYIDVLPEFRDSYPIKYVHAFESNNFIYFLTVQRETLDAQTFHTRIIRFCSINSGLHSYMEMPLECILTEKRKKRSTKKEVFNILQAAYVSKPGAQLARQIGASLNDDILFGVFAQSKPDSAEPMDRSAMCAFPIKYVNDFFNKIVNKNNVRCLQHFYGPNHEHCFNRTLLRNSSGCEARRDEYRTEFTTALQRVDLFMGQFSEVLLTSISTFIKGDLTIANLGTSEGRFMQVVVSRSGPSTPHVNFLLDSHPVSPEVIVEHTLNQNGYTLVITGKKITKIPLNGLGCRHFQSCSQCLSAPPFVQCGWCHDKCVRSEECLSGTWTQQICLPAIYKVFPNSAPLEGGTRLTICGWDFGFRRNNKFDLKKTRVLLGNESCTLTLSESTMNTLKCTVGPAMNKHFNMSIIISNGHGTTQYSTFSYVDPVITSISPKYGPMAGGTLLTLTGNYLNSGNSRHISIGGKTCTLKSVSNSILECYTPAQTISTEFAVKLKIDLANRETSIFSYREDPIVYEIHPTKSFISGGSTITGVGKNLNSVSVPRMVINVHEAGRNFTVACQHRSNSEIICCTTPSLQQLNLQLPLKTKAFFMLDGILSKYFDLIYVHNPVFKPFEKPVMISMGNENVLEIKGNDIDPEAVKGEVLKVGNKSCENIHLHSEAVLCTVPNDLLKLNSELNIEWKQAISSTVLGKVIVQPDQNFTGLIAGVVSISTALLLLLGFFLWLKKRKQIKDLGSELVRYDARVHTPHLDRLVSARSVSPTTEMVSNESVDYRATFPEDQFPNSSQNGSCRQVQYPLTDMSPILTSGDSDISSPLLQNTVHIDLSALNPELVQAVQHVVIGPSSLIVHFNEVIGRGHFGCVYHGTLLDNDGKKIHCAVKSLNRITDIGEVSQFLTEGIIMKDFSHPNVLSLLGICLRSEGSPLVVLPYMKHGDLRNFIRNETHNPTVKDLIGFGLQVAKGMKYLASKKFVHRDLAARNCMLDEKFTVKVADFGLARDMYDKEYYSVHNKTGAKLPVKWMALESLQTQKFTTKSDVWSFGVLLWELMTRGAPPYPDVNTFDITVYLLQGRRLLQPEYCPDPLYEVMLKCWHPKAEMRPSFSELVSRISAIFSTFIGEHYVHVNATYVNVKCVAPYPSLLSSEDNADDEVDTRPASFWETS
binder,measurement,setting,value
"pn7A12.N32X.m6 (VHH, not shown: small tags and cut ends, PTM-removal anti-cMet VHH-His) VHH: EVQLVESGGGLVQAGGSLRLSCVASGNIFSSDHMGWFRQAPGKQREFIAYITTREITNYADSVKGRFTISRDNTKNTVYLQMNVLKPEDTAVYYCIADQSREIRRSWGQGTQVTVSS",EC50,human cMet on cells [1],4.45 nM
same,Maximum MFI value,human cMet on cells [1],44700 MFI
"V-n5B10 anti-EGFR VHH-His (VHH, not shown: small tags and cut ends, Monovalent parent VHH) VHH: AVQLVDSGGGLVQPGGSLRLDCSASGTIIGTYTMAWYRQAPGKQREMVAIITPGGGSHHADSVKGRFTISRDNGKSTVYLQMSSLKFEDTAVYYCNAKARWGTTEYWGQGTQVTVSS",EC50,human EGFR on cells [2],15 nM
same,Maximum MFI value,human EGFR on cells [2],111000 MFI
same,Kd,[3],23.2 nM
same,koff,[3],0.00536 s⁻¹
same,kon,[3],232000 M⁻¹ s⁻¹
same,Kd,[4],7.36 nM
same,koff,[4],0.00384 s⁻¹
same,kon,[4],522000 M⁻¹ s⁻¹
"VHH10 (VHH, not shown: small tags and cut ends, Humanized 9A2 anti-cMet VHH-His; also called hu9A2) VHH: QSQLVESGGGLVKPGGSLRLSCVASGFTISRSIMSWYRQAPGKERDWVASIGSAGNTNYVDSVKGRFTISRDNAKNSLYLQMNSLRAEDTAVYYCKTTLAVSFSEYWGQGTLVTVSS",EC50,human cMet on cells [5],1.63 nM
same,Maximum MFI value,human cMet on cells [5],233000 MFI
"VHH8 (VHH, not shown: small tags and cut ends, Humanized 9A2 anti-cMet VHH-His) VHH: ESQLLESGGGLVQPGGSLRLSCVASGFTISRSIMSWYRQAPGKERDWVASIGSAGNTNYVDSVKGRFTISRDNSKNTVYLQMNSLRAEDTAVYYCKTTLAVSFSEYWGQGTLVTVSS",EC50,human cMet on cells [5],2.5 nM
same,Maximum MFI value,human cMet on cells [5],143000 MFI
"VHH9 (VHH, not shown: small tags and cut ends, Humanized 9A2 anti-cMet VHH-His) VHH: ESQLLESGGGLVQPGGSLRLSCVASGFTISRSIMSWYRQAPGKERDWVASIGSAGNTNYVDSVKGRFTISRDVSKNTLYLQMNSLRAEDTAVYYCKTTLAVSFSEYWGQGTLVTVSS",EC50,human cMet on cells [5],1.63 nM
same,Maximum MFI value,human cMet on cells [5],194000 MFI
"V-13 (10A1-9A2-7A12) (bispecific antibody, Single-chain trispecific anti-EGFR/cMet antibody) QVQLVESGGGLVQAGGSLRLSCAASGRTGSLHAMGWFRQAPGKERERVATLNLSDGSAVTADSVKGRFTISTDNTKNSVYLQMNSLKPEDTAVYYCTASRSPSGIRYYKPDYWGQGTQVTVSSGGGGSQSQLAESGGGLVQSGGSLGLSCVASGFTISRSIMSWYRQPPGKERDWVASIGSAGNTNYVDSVKGRFTISRDVAKNTVYLQMNSLKPEDTAVYYCKTTLAVSFSEYWGQGTQVTVSSGGGGSGGGGSEVQLVESGGGLVQAGGSLRLSCVASGNIFSSNHMGWFRQAPGKQREFIAYITTREITNYADSVKGRFTISRDNTKNTVYLQMNVLKPEDTAVYYCIADQSREIRRSWGQGTQVTVSS",Kd,[6],37.4 nM
same,koff,[6],0.0162 s⁻¹
same,kon,[6],433000 M⁻¹ s⁻¹
same,Kd,[7],48.9 nM
same,koff,[7],0.0135 s⁻¹
same,kon,[7],276000 M⁻¹ s⁻¹
same,Kd,[8],2.72 nM
same,koff,[8],0.000825 s⁻¹
same,kon,[8],304000 M⁻¹ s⁻¹
same,Kd,[9],1.91 nM
same,koff,[9],0.000381 s⁻¹
same,kon,[9],200000 M⁻¹ s⁻¹
"V-15 (10A1-7A12-9A2) (bispecific antibody, Single-chain trispecific anti-EGFR/cMet antibody) QVQLVESGGGLVQAGGSLRLSCAASGRTGSLHAMGWFRQAPGKERERVATLNLSDGSAVTADSVKGRFTISTDNTKNSVYLQMNSLKPEDTAVYYCTASRSPSGIRYYKPDYWGQGTQVTVSSGGGGSEVQLVESGGGLVQAGGSLRLSCVASGNIFSSNHMGWFRQAPGKQREFIAYITTREITNYADSVKGRFTISRDNTKNTVYLQMNVLKPEDTAVYYCIADQSREIRRSWGQGTQVTVSSGGGGSGGGGSQSQLAESGGGLVQSGGSLGLSCVASGFTISRSIMSWYRQPPGKERDWVASIGSAGNTNYVDSVKGRFTISRDVAKNTVYLQMNSLKPEDTAVYYCKTTLAVSFSEYWGQGTQVTVSS",Kd,[6],22.8 nM
same,koff,[6],0.00764 s⁻¹
same,kon,[6],335000 M⁻¹ s⁻¹
same,Kd,[7],28.3 nM
same,koff,[7],0.00943 s⁻¹
same,kon,[7],334000 M⁻¹ s⁻¹
same,Kd,[8],6.61 nM
same,koff,[8],0.00125 s⁻¹
same,kon,[8],189000 M⁻¹ s⁻¹
same,Kd,[9],4.49 nM
same,koff,[9],0.000831 s⁻¹
same,kon,[9],185000 M⁻¹ s⁻¹
"zn9B8.m2 (VHH, not shown: small tags and cut ends, Humanized anti-EGFR VHH-His) VHH: EVQLLESGGGLVQPGGSLRLSCAASGLTFSYYAMAWFRQAPGKEREFVAAINWNGGNTYNTDSVKGRFTISRDNSKNTVYLQMNSLTPEDTAVYYCAVRYNSASYLVARSSDYNYWGQGTLVTVSS",EC50,human EGFR on cells [2],2.49 nM
same,Maximum MFI value,human EGFR on cells [2],95800 MFI
same,EC50,human EGFR on cells [10],3.94 nM
same,Maximum MFI value,human EGFR on cells [10],84300 MFI
"pzn9B8.m2.m11 (VHH, not shown: small tags and cut ends, Humanized + PTM-removal anti-EGFR VHH-His; also called hu9B8) VHH: EVQLLESGGGLVQPGGSLRLSCAASGLTFSYYAMAWFRQAPGKEREFVAAINWNQGNTYNTDSVKGRFTISRDNSKNTVYLQMNSLTPEDTAVYYCAVRYNQASYLVARSSDYNYWGQGTLVTVSS",EC50,human EGFR on cells [10],3.39 nM
same,Maximum MFI value,human EGFR on cells [10],80100 MFI
"pzn9B8.m2.m12 (VHH, not shown: small tags and cut ends, Humanized + PTM-removal anti-EGFR VHH-His) VHH: EVQLLESGGGLVQPGGSLRLSCAASGLTFSYYAMAWFRQAPGKEREFVAAINWNAGNTYNTDSVKGRFTISRDNSKNTVYLQMNSLTPEDTAVYYCAVRYNAASYLVARSSDYNYWGQGTLVTVSS",EC50,human EGFR on cells [10],4.96 nM
same,Maximum MFI value,human EGFR on cells [10],85700 MFI
